Values quoted from earlier work as cited in article PMC9785887.

Experiments:
[1] = molecular target: Neuropilin-1 (Homo sapiens) (UniProt O14786)
[2] = molecular target: Integrin αvβ6 (Homo sapiens) (UniProt P06756)
Sequence of UniProt P06756 (P06756 31-992, chain 1 of 2): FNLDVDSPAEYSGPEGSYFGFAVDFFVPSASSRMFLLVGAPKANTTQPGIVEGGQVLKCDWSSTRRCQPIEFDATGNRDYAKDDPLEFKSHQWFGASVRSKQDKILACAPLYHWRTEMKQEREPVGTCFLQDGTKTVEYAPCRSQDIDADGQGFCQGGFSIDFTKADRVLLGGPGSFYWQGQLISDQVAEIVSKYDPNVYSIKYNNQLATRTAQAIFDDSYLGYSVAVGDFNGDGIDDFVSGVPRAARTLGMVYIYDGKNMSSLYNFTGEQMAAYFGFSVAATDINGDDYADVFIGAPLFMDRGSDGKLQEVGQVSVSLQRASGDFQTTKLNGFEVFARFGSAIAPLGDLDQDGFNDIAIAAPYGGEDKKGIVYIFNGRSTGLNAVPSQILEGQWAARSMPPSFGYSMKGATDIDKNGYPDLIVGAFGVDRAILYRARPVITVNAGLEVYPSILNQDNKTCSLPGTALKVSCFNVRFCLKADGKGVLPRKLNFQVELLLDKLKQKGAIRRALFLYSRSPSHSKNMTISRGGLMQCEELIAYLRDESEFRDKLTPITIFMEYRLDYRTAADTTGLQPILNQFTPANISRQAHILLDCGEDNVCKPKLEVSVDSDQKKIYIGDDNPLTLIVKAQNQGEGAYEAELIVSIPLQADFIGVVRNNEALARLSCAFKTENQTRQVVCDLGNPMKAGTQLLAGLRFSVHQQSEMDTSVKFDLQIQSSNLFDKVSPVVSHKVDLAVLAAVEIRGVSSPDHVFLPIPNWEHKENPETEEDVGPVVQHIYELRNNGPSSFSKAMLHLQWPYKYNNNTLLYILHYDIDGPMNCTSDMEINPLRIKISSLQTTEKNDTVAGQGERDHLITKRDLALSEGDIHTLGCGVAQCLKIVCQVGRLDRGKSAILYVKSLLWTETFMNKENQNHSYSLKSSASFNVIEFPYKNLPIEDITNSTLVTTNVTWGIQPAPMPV
Sequence of UniProt P06756 (P18564 22-709, chain 2 of 2, further chain): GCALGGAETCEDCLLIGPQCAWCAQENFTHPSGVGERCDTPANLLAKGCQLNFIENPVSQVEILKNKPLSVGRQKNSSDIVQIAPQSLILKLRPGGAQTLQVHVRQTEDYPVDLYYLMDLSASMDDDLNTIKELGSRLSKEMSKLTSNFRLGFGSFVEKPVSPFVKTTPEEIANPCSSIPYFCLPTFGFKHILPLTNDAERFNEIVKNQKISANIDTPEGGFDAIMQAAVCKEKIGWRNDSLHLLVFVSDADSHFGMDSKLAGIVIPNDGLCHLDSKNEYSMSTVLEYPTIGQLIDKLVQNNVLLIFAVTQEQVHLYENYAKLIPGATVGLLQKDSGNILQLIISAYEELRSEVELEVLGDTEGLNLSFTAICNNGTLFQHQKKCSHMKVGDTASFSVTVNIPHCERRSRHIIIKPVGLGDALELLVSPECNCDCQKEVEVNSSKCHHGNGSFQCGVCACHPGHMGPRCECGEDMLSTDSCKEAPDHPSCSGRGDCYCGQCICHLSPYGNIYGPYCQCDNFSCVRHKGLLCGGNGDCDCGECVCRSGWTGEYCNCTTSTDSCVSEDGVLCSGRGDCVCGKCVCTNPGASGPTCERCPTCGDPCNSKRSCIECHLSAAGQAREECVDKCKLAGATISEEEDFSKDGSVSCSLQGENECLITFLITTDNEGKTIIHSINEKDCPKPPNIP

Sequence of UniProt O14786 (O14786 22-856): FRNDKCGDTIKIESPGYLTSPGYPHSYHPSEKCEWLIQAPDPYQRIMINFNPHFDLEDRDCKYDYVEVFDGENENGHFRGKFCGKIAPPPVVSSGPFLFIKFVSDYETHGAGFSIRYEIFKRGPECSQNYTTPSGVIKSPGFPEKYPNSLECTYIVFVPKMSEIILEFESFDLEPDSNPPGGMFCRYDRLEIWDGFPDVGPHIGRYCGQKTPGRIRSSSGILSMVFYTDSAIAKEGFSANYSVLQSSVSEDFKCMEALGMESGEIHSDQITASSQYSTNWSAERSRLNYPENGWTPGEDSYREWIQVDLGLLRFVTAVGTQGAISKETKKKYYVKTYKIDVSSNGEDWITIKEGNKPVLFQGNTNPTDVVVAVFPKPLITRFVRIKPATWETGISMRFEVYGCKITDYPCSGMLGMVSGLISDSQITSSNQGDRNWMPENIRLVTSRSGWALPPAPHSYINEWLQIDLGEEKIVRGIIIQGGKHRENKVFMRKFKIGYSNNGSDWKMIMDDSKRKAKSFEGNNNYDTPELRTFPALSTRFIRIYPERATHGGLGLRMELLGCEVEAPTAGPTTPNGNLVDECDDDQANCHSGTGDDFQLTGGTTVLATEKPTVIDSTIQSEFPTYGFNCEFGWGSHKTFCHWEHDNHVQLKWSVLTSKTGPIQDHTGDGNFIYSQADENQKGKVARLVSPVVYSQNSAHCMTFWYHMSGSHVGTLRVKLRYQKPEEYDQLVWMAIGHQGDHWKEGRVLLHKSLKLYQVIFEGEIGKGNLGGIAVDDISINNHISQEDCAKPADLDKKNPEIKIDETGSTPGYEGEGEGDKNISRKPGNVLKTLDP
Sequence of Chromogranin A peptide CgA39-63 (P10645 57-81): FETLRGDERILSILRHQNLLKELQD

Row | Substance | Kd [1] | Ki [2]
1 | Chromogranin A 1-373 1-373 (from UniProt P10645) | 3.49 nM | –
2 | Chromogranin A peptide CgA39-63 | – | 15.5 nM
